Results published in PMC3407194, “Viral Reverse Transcriptases Show Selective High Affinity Binding to DNA-DNA Primer-Templates that Resemble the Polypurine Tract”.

Experiments:
AMV RT = target: T1, AMV RT (avian myeloblastosis virus, UniProt Q83133;Q83133 6-577;6-864); assay: primer extension with trap; 6 mM Mg2+; Primer extension: 50 mM Tris-HCl pH 8.0, 80 mM KCl, 6 mM MgCl2, 1 mM DTT, 0.1 mg/ml BSA, room temperature, 1 nM duplex; filter binding: Tris-HCl pH 8.0, 80 mM KCl, 1 mM DTT, without Mg2+ (wt) or 6 mM Mg2+ (E478Q), room temperature, 5 nM hybrid (Table 1 units nM inferred); settings: protein: commercial; copies: 1;1; label: 5'-32P primer; 41 nt primer on 45 nt template, 5' overhang 4 nt (template)
T1 sequence 1: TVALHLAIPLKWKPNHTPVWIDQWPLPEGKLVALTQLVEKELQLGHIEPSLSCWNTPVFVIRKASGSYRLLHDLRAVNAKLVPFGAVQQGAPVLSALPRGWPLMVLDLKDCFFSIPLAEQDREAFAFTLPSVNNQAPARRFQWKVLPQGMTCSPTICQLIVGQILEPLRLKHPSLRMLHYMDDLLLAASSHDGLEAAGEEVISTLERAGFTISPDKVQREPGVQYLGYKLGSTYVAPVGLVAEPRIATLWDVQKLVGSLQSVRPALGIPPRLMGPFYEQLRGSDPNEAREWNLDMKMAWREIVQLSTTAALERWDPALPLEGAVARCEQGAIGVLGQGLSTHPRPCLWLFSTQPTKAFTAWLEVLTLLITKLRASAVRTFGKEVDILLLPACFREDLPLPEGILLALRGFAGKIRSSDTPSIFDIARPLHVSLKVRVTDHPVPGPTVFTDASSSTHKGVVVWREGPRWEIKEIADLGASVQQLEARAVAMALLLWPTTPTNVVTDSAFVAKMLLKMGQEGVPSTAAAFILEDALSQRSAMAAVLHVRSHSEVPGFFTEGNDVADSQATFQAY
T1 sequence 2: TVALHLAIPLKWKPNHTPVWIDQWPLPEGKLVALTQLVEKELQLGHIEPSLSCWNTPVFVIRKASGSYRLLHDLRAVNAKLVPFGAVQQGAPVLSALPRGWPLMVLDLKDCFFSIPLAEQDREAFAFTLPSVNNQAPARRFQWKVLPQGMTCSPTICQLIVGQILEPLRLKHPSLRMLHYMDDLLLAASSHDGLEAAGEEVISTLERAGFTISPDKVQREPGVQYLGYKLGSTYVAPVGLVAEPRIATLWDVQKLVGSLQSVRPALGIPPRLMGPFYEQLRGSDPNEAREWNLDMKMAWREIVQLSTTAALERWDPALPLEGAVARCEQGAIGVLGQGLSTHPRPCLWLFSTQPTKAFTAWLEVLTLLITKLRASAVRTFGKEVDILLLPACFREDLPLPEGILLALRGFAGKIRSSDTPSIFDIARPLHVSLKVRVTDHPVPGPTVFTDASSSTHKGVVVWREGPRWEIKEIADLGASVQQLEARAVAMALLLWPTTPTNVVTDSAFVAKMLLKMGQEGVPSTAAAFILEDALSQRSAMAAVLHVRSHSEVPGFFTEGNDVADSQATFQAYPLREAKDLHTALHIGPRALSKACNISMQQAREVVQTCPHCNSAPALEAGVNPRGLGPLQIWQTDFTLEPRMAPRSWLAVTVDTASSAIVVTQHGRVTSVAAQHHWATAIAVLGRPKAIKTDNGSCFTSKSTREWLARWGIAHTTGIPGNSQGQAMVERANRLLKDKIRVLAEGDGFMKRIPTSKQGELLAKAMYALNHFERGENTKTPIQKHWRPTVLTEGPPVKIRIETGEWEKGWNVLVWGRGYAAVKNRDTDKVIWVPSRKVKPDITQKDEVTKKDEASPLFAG

HIV RT [1] = target: T2, HIV RT (HIV, UniProt P04585;P04585 588-1147;588-1027); assay: filter binding; no Mg2+; Primer extension: 50 mM Tris-HCl pH 8.0, 80 mM KCl, 6 mM MgCl2, 1 mM DTT, 0.1 mg/ml BSA, room temperature, 1 nM duplex; filter binding: Tris-HCl pH 8.0, 80 mM KCl, 1 mM DTT, without Mg2+ (wt) or 6 mM Mg2+ (E478Q), room temperature, 5 nM hybrid (Table 1 units nM inferred); settings: protein: commercial, copies: 1;1, label: 5'-32P primer
MuLV RT = MuLV RT (Moloney murine leukemia virus, UniProt P03355 660-1330); assay: primer extension with trap; 6 mM Mg2+; Primer extension: 50 mM Tris-HCl pH 8.0, 80 mM KCl, 6 mM MgCl2, 1 mM DTT, 0.1 mg/ml BSA, room temperature, 1 nM duplex; filter binding: Tris-HCl pH 8.0, 80 mM K
HIV RT [2] = target: T2, HIV RT; assay: primer extension with trap; 6 mM Mg2+; Primer extension: 50 mM Tris-HCl pH 8.0, 80 mM KCl, 6 mM MgCl2, 1 mM DTT, 0.1 mg/ml BSA, room temperature, 1 nM duplex; filter binding: Tris-HCl pH 8.0, 80 mM KCl, 1 mM DTT, without Mg2+ (wt) or 6 mM Mg2+ (E478Q), room temperature, 5 nM hybrid (Table 1 units nM inferred); settings: protein: commercial; copies: 1;1; label: 5'-32P primer; 41 nt primer on 45 nt template, 5' overhang 4 nt (template)
Ty3 RT = target: T3, Ty3 RT (Ty3 retrotransposon, UniProt Q99315 536-1011); assay: as above; settings: protein: recombinant; label: 5'-32P primer; 41 nt primer on 45 nt template, 5' overhang 4 nt (template)
T3 sequence: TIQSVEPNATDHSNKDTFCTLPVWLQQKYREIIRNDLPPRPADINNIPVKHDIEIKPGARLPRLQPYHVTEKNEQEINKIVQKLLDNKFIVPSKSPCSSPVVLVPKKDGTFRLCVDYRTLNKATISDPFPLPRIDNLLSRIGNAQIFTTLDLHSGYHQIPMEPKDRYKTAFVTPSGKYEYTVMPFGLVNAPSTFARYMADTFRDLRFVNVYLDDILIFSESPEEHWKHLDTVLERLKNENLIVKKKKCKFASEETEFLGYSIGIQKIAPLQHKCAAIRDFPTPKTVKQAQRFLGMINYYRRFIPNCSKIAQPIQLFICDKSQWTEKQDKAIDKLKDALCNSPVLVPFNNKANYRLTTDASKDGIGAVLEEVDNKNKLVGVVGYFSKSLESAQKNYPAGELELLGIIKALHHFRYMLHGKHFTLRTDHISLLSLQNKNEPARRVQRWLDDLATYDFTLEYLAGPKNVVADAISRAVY

B1: AMV R12-2 (dsDNA)
DNA 1: GCCTGCAGGTCGACTCTAGATCACAAAGACCGGCGGGGTAA
DNA 2: ATCTTTACCCCGCCGGTCTTTGTGATCTAGAGTCGACCTGCAGGC
For B1, the Kd (AMV RT) was 3.5 ± 0.1 nM.

B2: Ty3+3 RNA PPT (DNA:RNA)
RNA: CCUGAGCGCGCGGCC
DNA: CAGCGGCCGCGCGCTCAGG
modifications: strand 1 RNA, strand 2 DNA
B2 was tested, and the Kd (HIV RT [1]; 5' overhang 4 nt (template), printed U opposite A) was 900 ± 205 nM.

B3: TY3 DNA PPT (dsDNA)
DNA 1: GCCTGCAGGTCGACTCTAGAGACAACCCTGAGAGAGAGGAA
DNA 2: CATCTTCCTCTCTCTCAGGGTTGTCTCTAGAGTCGACCTGCAGGC
In the case of B3, the Kd (MuLV RT) is reported as 46 nM, the Kd (HIV RT [2]) is reported as 57 ± 10 nM and the Kd (Ty3 RT) is reported as 84 ± 26 nM. For the same binder, the Kd (AMV RT) was 12 ± 2 nM.

B4: MuLV DNA PPT (dsDNA)
DNA 1: GCCTGCAGGTCGACTCTAGATAGTCTCCAGAAAAAGGGGGG
DNA 2: CATTCCCCCCTTTTTCTGGAGACTATCTAGAGTCGACCTGCAGGC
In the case of B4, the Kd (MuLV RT) is reported as 12 nM, the Kd (HIV RT [2]) is reported as 3.5 ± 0.5 nM and the Kd (Ty3 RT) is reported as 45 ± 4 nM. The Kd (AMV RT) was 2.6 ± 0.2 nM.

B5: Ty3 RNA PPT (DNA:RNA)
?: GAGCGCGCGGCC
DNA: CAGCGGCCGCGCGCTCAGG
modifications: strand 1 RNA, strand 2 DNA
Binder B5 has a Kd (HIV RT [1]; template 5' overhang 4 nt, 3' overhang 3 nt) of 2380 ± 840 nM.

B6: MuLV R14-3 (dsDNA)
DNA 1: GCCTGCAGGTCGACTCTAGAGAGATGTAGCGCATGAAGGTA
DNA 2: CTTCTACCTTCATGCGCTACATCTCTCTAGAGTCGACCTGCAGGC
B6 showed a Kd (MuLV RT) of 53 nM.

B7: MuLV R14-1 (dsDNA)
DNA 1: GCCTGCAGGTCGACTCTAGAATAAGGAAGATCTGCGGGGGG
DNA 2: CTTTCCCCCCGCAGATCTTCCTTATTCTAGAGTCGACCTGCAGGC
With B7 the Kd (MuLV RT) was 8.1 nM.

B8: AMV DNA PPT (dsDNA)
DNA 1: GCCTGCAGGTCGACTCTAGAGCTTTTGCATAGGGAGGGGGA
DNA 2: CATTTCCCCCTCCCTATGCAAAAGCTCTAGAGTCGACCTGCAGGC
In the case of B8, the Kd (MuLV RT) is reported as 17 nM, the Kd (HIV RT [2]) is reported as 8.2 ± 2 nM and the Kd (Ty3 RT) is reported as 58 ± 4 nM. It also gave a Kd (AMV RT) of 1 ± 0.1 nM.

B9: Control-2 (DNA:RNA)
RNA: AAUUCGAGCUCGGUA
DNA: CAGTTACCGAGCTCGAATT
modifications: strand 1 RNA, strand 2 DNA
Binder B9 has a Kd (HIV RT [1]; 5' overhang 4 nt (template)) of 2610 ± 710 nM.

B10: HIV DNA PPT (41/45) (dsDNA)
DNA 1: GCCTGCAGGTCGACTCTAGACTTTTTAAAAGAAAAGGGGGG
DNA 2: CAGTCCCCCCTTTTCTTTTAAAAAGTCTAGAGTCGACCTGCAGGC
B10 was tested, and the Kd (MuLV RT) was 7.5 nM, the Kd (HIV RT [2]) was 3.2 ± 0.2 nM and the Kd (Ty3 RT) was 53 ± 12 nM. The Kd (AMV RT) was 2.1 ± 0.4 nM.

B11: MuLV R14-2 (dsDNA)
DNA 1: GCCTGCAGGTCGACTCTAGACACCAGGACATGATGGCAGGA
DNA 2: ATCTTCCTGCCATCATGTCCTGGTGTCTAGAGTCGACCTGCAGGC
Binder B11 has a Kd (MuLV RT) of 77 nM.

B12: AMV R12-3 (dsDNA)
DNA 1: GCCTGCAGGTCGACTCTAGACGGGCAGTGTAATGAAGGCCA
DNA 2: CTTCTGGCCTTCATTACACTGCCCGTCTAGAGTCGACCTGCAGGC
Binder B12 has a Kd (AMV RT) of 6.8 ± 0.1 nM.

B13: Control-1 (DNA:RNA)
?: AAAAGAAAAGCGCGC
DNA: CAGTGCGCGCTTTTCTTTT
modifications: strand 1 RNA, strand 2 DNA
B13 gave a Kd (HIV RT [1]; 5' overhang 4 nt (template)) of 1760 ± 290 nM.
